Laboratory results reported in publication PMC7775154.

Target: catalase (human) (UniProt P04040)
Sequence of UniProt P04040 (P04040 5-501): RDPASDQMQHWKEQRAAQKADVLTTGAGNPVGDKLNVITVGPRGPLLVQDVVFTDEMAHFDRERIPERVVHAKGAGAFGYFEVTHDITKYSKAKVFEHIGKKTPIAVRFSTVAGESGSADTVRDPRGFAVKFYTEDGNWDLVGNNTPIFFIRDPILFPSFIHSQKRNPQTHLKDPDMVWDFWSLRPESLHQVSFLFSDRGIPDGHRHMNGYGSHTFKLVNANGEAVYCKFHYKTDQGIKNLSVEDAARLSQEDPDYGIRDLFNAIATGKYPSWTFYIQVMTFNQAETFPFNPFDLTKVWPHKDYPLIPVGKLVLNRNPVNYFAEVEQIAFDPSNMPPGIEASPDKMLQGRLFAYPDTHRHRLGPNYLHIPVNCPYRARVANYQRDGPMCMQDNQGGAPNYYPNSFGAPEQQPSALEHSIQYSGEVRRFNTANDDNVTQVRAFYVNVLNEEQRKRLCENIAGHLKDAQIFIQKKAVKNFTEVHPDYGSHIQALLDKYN

An H2O2 level in the blood of healthy controls after a 2 h incubation with E22K (H2O2 kit) of 86.5 was found for “Aβ42 E22K (Italian type mutation, glutamic acid 22-to-lysine) (peptide)” in this work.
